# Test results: the supplement of paper PMC9732359
# ± gives the uncertainty stated by the source.
# Assay: protein stability index of a GFP-peptide fusion (yeast GPS) (PSI 1-4); higher = more stable; sorted into four equal gates, so the index is relative within each strain
# Summary of the method: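 Yeast carrying a pooled library were grown to mid-log phase in leucine-free medium. Each library plasmid expresses Cherry and has a tiled 17-residue yeast protein peptide fused downstream of GFP. Cells were sorted into four equal gates by GFP/Cherry ratio, and plasmids from each gate were PCR-amplified, Illumina-sequenced and assigned to strains by barcode. Summing, across gates, the read frequency times the gate number gave each peptide's protein stability index.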
Sequence,protein stability index (doa10∆),protein stability index (pdr5∆),protein stability index (san1∆),protein stability index (ubr1∆)
MILKLVCQVTKFGLLLQ [ECM29],2.12 ± 0.066,2.28 ± 0.078,2.46 ± 0.072,1.61 ± 0.063
SSNISPEQVYSLLLTNV [ARP7],2.27 ± 0.035,2.48 ± 0.036,2.43 ± 0.04,2.46 ± 0.033
AIQMVDPASFYLFDEID [SMC3],1.95 ± 0.042,2.32 ± 0.049,2.66 ± 0.067,2.07 ± 0.045
EIKKLLATNSLVEEFML [DIS3],2.32 ± 0.055,1.9 ± 0.052,2.54 ± 0.057,2.3 ± 0.048
VLISKLSCEKITHYAVR [RRI1],1.45 ± 0.046,1.64 ± 0.051,1.66 ± 0.07,1.67 ± 0.039
LAAIVSTVIEEFTLFMD [YGL172W/NUP49],2.21 ± 0.052,2.56 ± 0.061,2.1 ± 0.074,2.42 ± 0.055
TASSLAHDYNNDQDMFT [YML103C/NUP188],3.19 ± 0.067,3.04 ± 0.063,3.17 ± 0.046,3.12 ± 0.055
NPHQKDQLIISSSANKL [YML103C/NUP188],2.45 ± 0.15,2.71 ± 0.094,2.29 ± 0.15,2.78 ± 0.069
KQLEKRDYQRINKNSKI [POP4],2.06 ± 0.067,2.4 ± 0.068,2.02 ± 0.11,2.69 ± 0.11
IERDSLVDDENEPSQSL [BRN1],3.27 ± 0.12,3.41 ± 0.12,3.18 ± 0.082,3.2 ± 0.077
VGFLVQLDLTGIFLHGK [PRP8],2.17 ± 0.074,1.85 ± 0.05,2.33 ± 0.058,2.39 ± 0.067
LYSGLIIDEIITQMRVN [RPC82],2.12 ± 0.078,2.36 ± 0.094,2.71 ± 0.2,1.58 ± 0.068
KSLGVKSLGGGAALKDI [FAS2],3 ± 0.051,2.25 ± 0.049,2.41 ± 0.048,2.86 ± 0.057
QLGYIENSFYKKEASKT [POP1],2.27 ± 0.061,2.43 ± 0.058,2.43 ± 0.056,2.39 ± 0.044
FKGHSHIVQDCTLTADG [ASC1],1.67 ± 0.066,2.04 ± 0.087,2.06 ± 0.16,1.55 ± 0.065
ARYNWICDPVHKHREAR [RPL15A],3.51 ± 0.12,2.81 ± 0.13,2.98 ± 0.12,3.22 ± 0.096
SSNPNSSLHSPTSDEPV [SRB4],3.09 ± 0.13,2.99 ± 0.079,2.99 ± 0.063,3.15 ± 0.058
DPLRIAMKELAEKKIPL [RPO26],–,3.26 ± 0.18,–,–
KAPLQPNSERETDHANT [IRR1],2.6 ± 0.083,2.98 ± 0.062,2.59 ± 0.068,2.88 ± 0.047
DISLKADLERFFLSIYF [YJL039C/NUP192],3.24 ± 0.13,2.79 ± 0.092,2.96 ± 0.099,2.94 ± 0.044
LFPEQQNKEIKAERVED [RPL6A],3.61 ± 0.11,3.14 ± 0.1,3.59 ± 0.065,3.35 ± 0.056
KRYTSEGTRNRFSYSPP [YMR129W/POM152],3.09 ± 0.088,3.09 ± 0.063,2.92 ± 0.043,3.09 ± 0.043
LTIDDLGVASFHGTSTK [FAS2],2.99 ± 0.063,3.01 ± 0.071,3.03 ± 0.06,3.01 ± 0.047
LKPKLYYEQFRPDLIKE [SIR3],3.06 ± 0.073,3.15 ± 0.06,3.25 ± 0.05,3.33 ± 0.045
EEGEFIIDLYSLPEGLL [TAF14],3.4 ± 0.088,3.54 ± 0.085,3.57 ± 0.058,3.52 ± 0.063
NSDIANLRTQVTQQKRS [SMC1],3.05 ± 0.074,3.1 ± 0.055,2.97 ± 0.062,3.08 ± 0.066
SYLEERERQVNEKLADL [RPC53],3.2 ± 0.14,3.42 ± 0.16,3.12 ± 0.17,3.19 ± 0.23
TGKIVDVVGTLSRNGKP [FAS1],3.33 ± 0.15,3.6 ± 0.13,3.48 ± 0.094,3.44 ± 0.071

Sequence,protein stability index (doa10∆),protein stability index (pdr5∆),protein stability index (san1∆),protein stability index (ubr1∆)
MACNFQFPEIAYPGKLI [CSL4],2.88 ± 0.12,2.9 ± 0.12,2.76 ± 0.12,2.62 ± 0.16
EIGILDHVDGSSEFVSQ [RRP46],1.69 ± 0.067,2.01 ± 0.059,2.24 ± 0.065,2.5 ± 0.064
QYTKDEQFYTKDIIDPK [RPN2],3.53 ± 0.13,3.24 ± 0.094,2.78 ± 0.15,3.29 ± 0.065
EIDVENHDRINISNNLQ [RPN8],3.21 ± 0.061,3.26 ± 0.082,3.32 ± 0.043,3.21 ± 0.054
GFVRNSFFSGLSPPEFL [RPO31],2.99 ± 0.077,2.95 ± 0.079,3.11 ± 0.08,3.13 ± 0.052
KLSKSATESIKNRRRIH [SMC1],–,–,–,2.62 ± 0.25
RDEIAKNTELSYDFLPL [RPN12],1.54 ± 0.062,2.23 ± 0.072,1.82 ± 0.079,2.32 ± 0.05
LRLTDVTNSLSNEEKEK [GAL11],3.14 ± 0.12,3.17 ± 0.12,2.52 ± 0.15,3.3 ± 0.12
KEECQIEDDGIIESHLI [CSN9],3.59 ± 0.25,3.23 ± 0.14,3.19 ± 0.084,3.02 ± 0.23
QDSILIIYPRSQTTLVQ [ARP9],2.6 ± 0.16,1.81 ± 0.064,2.23 ± 0.079,2.46 ± 0.067
LPSAVDGENDKKEATKP [YLR335W/NUP2],3.36 ± 0.082,3.29 ± 0.067,3.05 ± 0.056,3.37 ± 0.059
ETRNGKVKNQGADVTNT [YCS4],3.22 ± 0.1,3.45 ± 0.17,3.11 ± 0.072,3.18 ± 0.076
IFTDAGRVYRPLFIVED [RPB2],2.16 ± 0.066,2.51 ± 0.08,2.06 ± 0.074,1.89 ± 0.033
LGNVDAFQLADGIHYIL [PRP8],2.74 ± 0.15,2.65 ± 0.083,2.42 ± 0.1,1.91 ± 0.042
NNEMKSLQRSKSSFVKE [SMC1],–,3.25 ± 0.13,3.03 ± 0.11,3.28 ± 0.073
AFDKHMNLVLNECIEER [SMB1],2.06 ± 0.14,2.34 ± 0.19,2.68 ± 0.16,2.56 ± 0.051
AQAQAQAQAQAQAAQAA [GAL11],2.91 ± 0.055,3.27 ± 0.045,3.258 ± 0.023,3.15 ± 0.057
HVQFRLGNVDAFQLADG [PRP8],3.28 ± 0.11,2.79 ± 0.084,2.47 ± 0.11,1.61 ± 0.046
IMNELYRMKGGRVTFIP [SMC3],2.12 ± 0.23,–,–,3.66 ± 0.16
FKIWHGEINKICMESLF [PCI8],1.83 ± 0.1,1.46 ± 0.056,1.42 ± 0.1,1.87 ± 0.058
SQLQEQFNKILPEPTEG [FAS1],2.82 ± 0.1,3.17 ± 0.12,2.64 ± 0.076,2.71 ± 0.097
SAGLFGSKPAGGTSLFG [YGL172W/NUP49],2.6 ± 0.081,2.9 ± 0.1,2.27 ± 0.098,2.66 ± 0.047
QFGNACISLSGVPNYLV [SSN2],1.59 ± 0.077,2.05 ± 0.093,2.37 ± 0.21,2.21 ± 0.069
FLTNELIRLQMEKLDAK [SWI3],2.97 ± 0.11,2.98 ± 0.085,3.14 ± 0.051,2.96 ± 0.078
YFLRRQYILQIVSFIVN [YJL039C/NUP192],1.2 ± 0.048,1.38 ± 0.068,1.31 ± 0.14,1.1 ± 0.055
DAGVTFNKEQLNKFKKA [ECM29],1.83 ± 0.053,2.13 ± 0.11,1.55 ± 0.14,2.36 ± 0.059
QRTCLMTVTFLILAGQV [YCS4],1.19 ± 0.052,1.36 ± 0.05,1.27 ± 0.099,1.43 ± 0.043
